Measured values published in patent US20250215467A1, “L-THREONINE TRANSALDOLASES AND USES THEREOF” (University of Delaware, priority 2022, published 2025).

Assay: In vitro CAR-TTA coupled assay with HPLC analysis
Assay type: biochemical
Settings: CAR plus 2 μM PbTTA, 100 mM L-Thr, 20 h
Procedure: In vitro CAR activity assays were performed as previously reported (Gopal et al. biorxiv, 2022) using 2 mM NADPH and 2 mM ATP, 20 mM MgCl2, and 0.75 μM CAR and E. coli pyrophosphatase. For in vitro coupling with the CAR and TTA, the same in vitro CAR assay was performed with the addition of 2 μM TTA, 0.4 mM PLP, and 100 mM L-Thr; however, rather than monitoring the reaction with the plate reader, the plate was left shaking at 1000 RPM with an orbital radius of 1.25 mm at 30° C. overnight. The reaction was then quenched after 20 h with 100 μL of 3:1 methanol:2 M HCl. The supernatant was then separated from the protein precipitate using centrifugation and analyzed via HPLC.
Metabolites of interest were quantified via high-performance liquid chromatography (HPLC) using an Agilent 1260 Infinity model equipped with a Zorbax Eclipse Plus-C18 column. To quantify aldehyde and β-OH-nsAAs, an initial mobile phase of solvent A/B=95/5 was used (solvent A, water+0.1% TFA; solvent B, acetonitrile+0.1% TFA) and maintained for 5 min. A gradient elution was performed (A/B) as follows: gradient from 95/5 to 50/50 for 5-12 min, gradient from 50/50 to 0/100 for 12-13 min, and gradient from 0/100 to 95/5 for 13-14 min. A flow rate of 1 mL min-1 was maintained, and absorption was monitored at 210, 250 and 280 nm. […]

B1: PbTTA: L-threonine transaldolase, SEQ ID NO: 16, Parachlamydiales bacterium, MBN2478762.1 (protein, listed as Parachlamydiales bacterium)
chain: METSLKDFETILHLINKEEIDSNDTIHMTANENIMSKLSKHYLKSTLSYRYHVGMFDDQKNLTVSRSCLIKNSLMLRCLSPIFLLEQQAREYVKKMFFAEYADFRPLSGMHTVFCILSTLTKPNDRVYVFTTESVGHAATVSLLKSLGRKVSFIPFCEKKLDIDLEKLSKQILIEKPNAILFDFGTPFYPLPIREIREIVGNDVKMIYDASHVLGLIAGGQFQNPLLEGCDVLIGNTHKTFPGPQKGMILYKNKSLGKEIATEIFKSAISAQHTHHAIALYVTIIEMYIHGKEYANQIIKNNHALSQALINEGFKIFKRKNQFSLSHMIAITGDFPIDHHVACADLHNSNISTNSRILYDFPAVRIGVQEVTRKGMKEKDMVQLAKFFKEIILDRKNISSKIKEFNNKFNSIEYSLDEIYEKLF
With B1 the “β-OH-nsAA production from 4-azido-benzoic acid, in vitro CAR-TTA coupling” value was “successfully produced a β-OH-nsAA product”.
